Experimental data taken from PMC3534021, “Structure of the TPR Domain of AIP: Lack of Client Protein Interaction with the C-Terminal α-7 Helix of the TPR Domain of AIP Is Sufficient for Pituitary Adenoma Predisposition” (PLoS ONE, 2012).
Where “and” joins values, the source holds several entries; their conditions need not be identical. Equal entries are not always repeated.

T1: TPR domain of human AIP, R304Q (disease-associated missense mutation) (human)
T1 sequence (O00170 166-330 with R304Q, looked up): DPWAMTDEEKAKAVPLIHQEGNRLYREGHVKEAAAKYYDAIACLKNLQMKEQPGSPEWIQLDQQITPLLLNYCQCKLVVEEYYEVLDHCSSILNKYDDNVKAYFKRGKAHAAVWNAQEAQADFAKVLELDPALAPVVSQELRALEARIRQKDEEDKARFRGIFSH

B1: TPR domain (residues 166–330) of human AIP (aryl hydrocarbon receptor interacting protein), wild type (domain or fragment, UniProt O00170 166-330, looked up)
chain: DPWAMTDEEKAKAVPLIHQEGNRLYREGHVKEAAAKYYDAIACLKNLQMKEQPGSPEWIQLDQQITPLLLNYCQCKLVVEEYYEVLDHCSSILNKYDDNVKAYFKRGKAHAAVWNAQEAQADFAKVLELDPALAPVVSRELRALEARIRQKDEEDKARFRGIFSH
notes: Residues Asp 172 to Arg 325 were visible in the TOMM20 peptide structure; also called AIP TPR-domain; WT

What was measured:
[1] = biological target: B1; assay: ITC; twenty 1.9 µL aliquots of peptide (350 to 600 µM) injected into 30 µM AIP TPR-domain; 20 mM Tris pH 7.5, 5 mM NaCl, 30°C; conditions: both partners purified
[2] = biological target: TPR domain of human AIP, R304A mutant (human); assay: as above
[3] = biological target: T1, TPR domain of human AIP, R304Q (disease-associated missense mutation) (human); assay: as above
HSP90 = HSP90 ATPase assay; type: biochemical; conditions: 20-fold molar excess of full-length AIP
full-length human HSP90β [4] = biological target: T2, full-length human HSP90β (human, UniProt P08238 1-724); assay: ITC; twenty 1.9 µL aliquots of AIP TPR-domain at 350 µM injected into 30 µM human HSP90β; 20 mM Tris pH 7.5, 5 mM NaCl, 30°C; conditions: both partners purified
T2 construct: HSP90β, human, full length; also called FL-hHSP90β; intact HSP90

full-length human HSP90β [5] = biological target: T2, full-length human HSP90β; assay: as above; conditions: both partners purified; remark: listed apart in the source

T2 sequence (P08238 whole entry): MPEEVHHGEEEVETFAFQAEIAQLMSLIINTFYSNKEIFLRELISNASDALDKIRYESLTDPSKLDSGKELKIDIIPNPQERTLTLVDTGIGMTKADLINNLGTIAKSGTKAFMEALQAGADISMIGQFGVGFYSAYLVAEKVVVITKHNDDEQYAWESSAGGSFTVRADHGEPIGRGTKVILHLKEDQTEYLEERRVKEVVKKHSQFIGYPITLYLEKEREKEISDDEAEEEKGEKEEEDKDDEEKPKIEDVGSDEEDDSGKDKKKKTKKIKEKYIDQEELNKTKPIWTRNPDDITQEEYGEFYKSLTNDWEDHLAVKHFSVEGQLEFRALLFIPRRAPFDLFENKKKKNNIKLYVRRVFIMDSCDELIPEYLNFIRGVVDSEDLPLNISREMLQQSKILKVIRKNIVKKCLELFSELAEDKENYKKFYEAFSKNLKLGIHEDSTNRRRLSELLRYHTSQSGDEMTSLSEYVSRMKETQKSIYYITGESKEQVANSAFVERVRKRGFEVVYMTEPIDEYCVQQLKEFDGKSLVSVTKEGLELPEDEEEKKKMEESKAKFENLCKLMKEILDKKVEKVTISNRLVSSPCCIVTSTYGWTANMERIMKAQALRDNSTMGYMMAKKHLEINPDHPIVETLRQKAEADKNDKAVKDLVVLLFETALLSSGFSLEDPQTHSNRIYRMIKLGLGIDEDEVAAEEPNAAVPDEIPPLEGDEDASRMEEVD

Row | Kd [1] | dH [1] | stoichiometry N [1] | Kd [2] | dH [2] | stoichiometry N [2] | Kd [3] | dH [3] | stoichiometry N [3] | Kd (full-length human HSP90β [4]) | dH (full-length human HSP90β [4]) | stoichiometry N (full-length human HSP90β [4]) | stoichiometry N (full-length human HSP90β [5]) | Molecule | Effect on the ATPase activity of HSP90 (HSP90)
1 | 64.5 ± 3.2 µM | -4420 cal/mol | 0.89 | – | – | – | – | – | – | – | – | – | – | TLEELDW (also called TLEELDW (hPDE4A5); PDE4A5 peptide) [TLEELDW peptide (PDE4A5)] | –
2 | 18.1 ± 1.9 µM | -6350 cal/mol | 0.63 | 22.8 µM | -5460 cal/mol | 0.66 | 31.1 µM | -5500 cal/mol | 0.84 | – | – | – | – | GSGPTIEEVD (C-terminus of human HSP70; also called HSP70 peptide) [GSGPTIEEVD peptide (human HSP70 C-terminus)] | –
3 | – | – | – | – | – | – | – | – | – | – | – | – | – | full-length AIP: full-length aryl hydrocarbon receptor interacting protein, tested on HSP90 ATPase activity (protein, UniProt O00170 1-330, looked up, full-length) MADIIARLREDGIQKRVIQEGRGELPDFQDGTKATFHYRTLHSDDEGTVLDDSRARGKPMELIIGKKFKLPVWETIVCTMREGEIAQFLCDIKHVVLYPLVAKSLRNIAVGKDPLEGQRHCCGVAQMREHSSLGHADLDALQQNPQPLIFHMEMLKVESPGTYQQDPWAMTDEEKAKAVPLIHQEGNRLYREGHVKEAAAKYYDAIACLKNLQMKEQPGSPEWIQLDQQITPLLLNYCQCKLVVEEYYEVLDHCSSILNKYDDNVKAYFKRGKAHAAVWNAQEAQADFAKVLELDPALAPVVSRELRALEARIRQKDEEDKARFRGIFSH | did not influence
4 | 12.6 ± 1.6 µM | -4140 cal/mol | 1 | – | – | – | – | – | – | – | – | – | – | MEEVD (extreme C-terminal five residues of HSP90; also called MEEVD (HSP90)) [MEEVD peptide (HSP90)] | –
5 | 9.5 ± 0.6 µM | -3530 cal/mol | 1.2 | – | – | – | – | – | – | – | – | – | – | DDTSRMEEVD (extreme C-terminus of human HSP90α) [DDTSRMEEVD peptide (human HSP90α C-terminus)] | –
6 | 12.3 ± 0.5 µM | -6760 cal/mol | 0.87 | 16.6 µM | -4510 cal/mol | 0.69 | 22.5 µM | -6070 cal/mol | 0.66 | – | – | – | – | AQSLAEDDVE (extreme C-terminus of human TOMM20; Only AEDDVE was visible in the crystal structure) [AQSLAEDDVE peptide (human TOMM20 C-terminus)] | –
7 | 18.6 µM and 14.4 µM | -5040 cal/mol and -3920 cal/mol | 1.2 and 1.1 | 15.6 µM | -6440 cal/mol | 0.96 | 16.2 µM | -6420 cal/mol | 0.98 | – | – | – | – | EDASRMEEVD (extreme C-terminus of human HSP90β; Only SRMEEVD was visible in the crystal structure) [EDASRMEEVD peptide (human HSP90β C-terminus)] | –
8 | – | – | – | – | – | – | – | – | – | 13.3 ± 1.8 µM | -4550 cal/mol | 0.3 | 0.5 | B1 | –
